In patent US20110274696A1 (Amgen, published 2011):
Numbering of substitutions follows the chain as printed. Names and notes keep the numbering of the source. Values joined by “and” are separate entries in the source; they are usually repeats but may differ in a detail not shown here. Equal entries are not always repeated. Where no end group is shown, it is not given here.

Tests used:
[1] = target: T1, biotinylated CCR2 loop 3 peptide (human, also: biotinylated, position not given here); experiment: peptide ELISA
T1 construct: Synthetic peptide (AnaSpec) captured on a NeutrAvidin plate; also called third loop
T1 peptide: QEFFGLSNCESTSQLDQ
Description: (§1) In addition, epitope binding to the first and/or second loop of CCR2 was also assessed using a peptide ELISA. A Reacti-Bind NEUTRAVIDIN™ Coated, High Binding Capacity ELISA plate (Pierce; Rockford, Ill.) was washed 3× with PBS/0.05% Tween20 and then coated with 100 ul/well of 6 ug/ml biotinylated CCR2 loop 2 (SEQ ID NO:129) or loop 3 (SEQ ID NO:130) peptide (AnaSpec; San Jose, Calif.). The plate was incubated for 1 hour and then washed 3×. The CCR2 antagonist antibody 4.40.3 A68G S230P or other primary antibody, diluted in PBS/0.1% BSA/0.05% Tween20, was then added to the plate in serial dilution and incubated for 1 hour, as were other controls. The plate was washed 3× and 100 ul/well HRP-Mouse anti-Human IgG4 secondary antibody (Zymed; So. San Francisco, Calif.) was added to all the wells at 1:5000 dilution and incubated for 1 hour. The plate was washed 3× and TMB substrate was added to all the wells and incubated for ˜30 minutes. The color reaction was stopped with 2M H₂SO₄ and the absorbance reading was measured on a plate reader at […] (FIG. 8).

[2] = target: T2, human CCR2 (human, UniProt P41597-2 1-360); experiment: cell-based or functional assay
T2 sequence: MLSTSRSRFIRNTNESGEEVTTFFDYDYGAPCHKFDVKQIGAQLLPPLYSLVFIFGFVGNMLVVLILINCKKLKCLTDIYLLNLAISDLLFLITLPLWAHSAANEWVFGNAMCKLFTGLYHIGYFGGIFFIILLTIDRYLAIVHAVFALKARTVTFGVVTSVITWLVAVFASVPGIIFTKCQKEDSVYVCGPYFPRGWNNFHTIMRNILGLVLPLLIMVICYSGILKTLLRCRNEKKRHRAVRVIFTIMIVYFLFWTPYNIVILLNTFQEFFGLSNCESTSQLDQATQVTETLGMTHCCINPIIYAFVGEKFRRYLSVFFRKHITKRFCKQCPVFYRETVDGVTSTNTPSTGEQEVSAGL

[3] = target: T2, human CCR2; experiment: cell-based or functional assay; remark: listed apart in the source
[4] = target: T3, biotinylated CCR2 loop 2 peptide (human, biotinylated (position not given)); experiment: peptide ELISA, biotinylated peptide on NeutrAvidin plate
T3 construct: Synthetic peptide (AnaSpec) captured on a NeutrAvidin plate; also called second extracellular loop peptide
T3 peptide: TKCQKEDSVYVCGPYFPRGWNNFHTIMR
Description: as §1

[5] = target: T2, human CCR2; experiment: cell-based or functional assay; remark: listed apart in the source
[6] = target: cynomolgus monkey CCR2 (cynomolgus monkey); experiment: cell-based or functional assay
[7] = target: T4, RMMR chimeric receptor (N-terminus and 3rd loop of CCR1; 1st and 2nd loops of CCR2), FLAG-tagged; experiment: FACS saturation binding on RMMR chimera transfected 300-19 cells
T4 construct: also called 1st and 2nd loops of CCR2 (RMMR)
Description: (§2) Fifteen minutes later, a secondary detection antibody, R-Phycoerythrin conjugated Affini-pure F(ab′) fragment Donkey anti-human IgG H+L (Jackson 709-116-149), was added. Tubes were gently shaken for 3 hours at room temperature. After 2 washes in buffer, cells were resuspended in 500 ul of buffer and assessed on a FACS CALIBUR™. A total of 10,000 events per tube were assessed. The mean channel fluorescent intensity was assessed for each concentration of antibody as an indicator for the magnitude of staining.
(§3) Binding of antibodies to the CCR2/CCR1 chimeric receptors was assessed using FACS analysis. All receptors were tagged at the N-terminus with FLAG and also stained with the anti-FLAG antibody M1 such that receptor expression could be confirmed. FIGS. 6A & B illustrate the FACS staining of FLAG on the N-terminus with M1 antibody (FIG. 6A) as compared to the staining of 4.40 (FIG. 6B). FIG. 6C illustrates a saturation binding curve of the 4.40 A68G S230P antibody on RMMR chimera transfected 300-19 cells.

[8] = target: T5, CCR5 (human, UniProt P51681 1-352); experiment: FACS, AF-488 conjugated antibody on 300-19 cells expressing recombinant CCR5
T5 construct: also called recombinant CCR5; human CCR5
Description: The selectivity of the 4.40 A68G S230P antibody for human CCR2 was confirmed by the absence of binding to a closely related chemokine receptor, CCR5, as shown in FIG. 9 and by the lack of inhibition of chemotaxis induced by the CCR5/CCR1 ligand MIP-1a (FIG. 3). […] For these studies, 300.19 cells engineered to express CCR5 were incubated with either the CCR2 selective antibody, 4.40 A68G S230P, or the CCR5-selective antibody for 30 minutes. Cells were then washed in FACS buffer (0.02% sodium azide, 2% heat inactivated fetal bovine serum in PBS) and analyzed for cell surface expression using a flow cytometer using standard methods.

[9] = target: T2, human CCR2; experiment: FACS saturation binding (3 hour assay) on CCR2 transfected 300-19 cells, PE anti-human IgG detection
Description: as §2, with “Briefly, using a buffer of Dulbecco's Phosphate Buffered Saline containing 2% heat inactivated Fetal Bovine Serum, 0.002% Sodium Azide and 0.005 mg/ml Cytochalasin-B (Sigma 6762), 1 million cells in a volume of 100 ul were stained with the test antibody. Fifteen” for “Fifteen”

[10] = target: T4, RMMR chimeric receptor (N-terminus and …); experiment: FACS saturation binding on 300-19 cells expressing the chimera with the first and second extracellular loops of CCR2 (FIG. 6C)
Description: as §2, §3

[11] = target: T3, biotinylated CCR2 loop 2 peptide; experiment: capture ELISA, biotinylated CCR2 loop 2 peptide on a NeutrAvidin plate, HRP anti-human IgG4, absorbance at 450 nm
Description: as §1

[12] = target: T1, biotinylated CCR2 loop 3 peptide; experiment: capture ELISA, biotinylated CCR2 loop 3 peptide on a NeutrAvidin plate, HRP anti-human IgG4, absorbance at 450 nm
Description: as §1

[13] = target: T2, human CCR2; experiment: FACS saturation binding, 3 hour assay, 300-19 cells expressing human CCR2; full-length human CCR2 on transfected 300-19 cells, not the chimera; KD in ug/mL
Description: as §2, with “Briefly, using a buffer of Dulbecco's Phosphate Buffered Saline containing 2% heat inactivated Fetal Bovine Serum, 0.002% Sodium Azide and 0.005 mg/ml Cytochalasin-B (Sigma 6762), 1 million cells in a volume of 100 ul were stained with the test antibody. Fifteen” for “Fifteen”

T5 sequence (P51681 whole entry): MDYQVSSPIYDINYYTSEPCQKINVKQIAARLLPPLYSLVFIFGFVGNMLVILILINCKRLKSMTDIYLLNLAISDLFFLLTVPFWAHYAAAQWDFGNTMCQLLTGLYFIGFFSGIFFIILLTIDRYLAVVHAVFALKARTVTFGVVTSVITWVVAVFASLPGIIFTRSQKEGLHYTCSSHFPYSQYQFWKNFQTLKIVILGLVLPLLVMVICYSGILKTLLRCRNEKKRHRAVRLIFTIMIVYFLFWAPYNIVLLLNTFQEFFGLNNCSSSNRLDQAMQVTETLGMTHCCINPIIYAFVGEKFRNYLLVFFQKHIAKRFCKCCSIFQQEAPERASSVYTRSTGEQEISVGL

B1: anti-CCR2 monoclonal antibody 4.40 (antibody, V domains shown)
VH: QVQLVESGGGVVQPGRSLRLSCAASGLTFSSYGMHWVRQAPGKGLEWVAVILYDGKNKYYADSVKGRFTISRDNSKNTLYLQMNSLRAEDTAVYYCARDQAYWTYFDAFDIWGQGTMVTVSS
VL: EIVLTQSPDFQSVTPKEKVTITCRASQSIGSSLHWYQQKPDQSPKLLIKYASQSFSGVPSRFSGSGSATDFTLTINSLEAEDAATYYCHQSSSLPLTFGGGTKVEIKR
notes: Hybridoma clone from IgG4 XenoMouse mice; Variable domains were also cloned into IgG1, IgG2 and IgG4 formats; also called 4.40.2; 4.40.3
binding result [1]: no binding
Inhibition of MCP-1-induced THP-1 Chemotaxis, IC50 [2]: 0.137 µg/mL
Chemotaxis IC50 [3]: 0.13 µg/mL
binding result [4]: binds

B2: anti-CCR2 monoclonal antibody 4.9 (antibody, human IgG4, kappa, V domains shown)
VH: B1 VH with L27F, I51Q, L52T, K56R, N77K, S85R, T104K
VL: DIQMTQSPSSLSTSVGDRVTITCRASQSISSYLNWYQQKPGKAPKLLIYAASSLQSGVPSRFSGSGSGTDFTLTISSLQPEDFATYYCQQSYNSPCSFGQGTKLEIKR
notes: Hybridoma clone from IgG4 XenoMouse mice; also called 4.9.2; 4.9.3
binding result [1]: no binding
Inhibition of MCP-1-induced THP-1 Chemotaxis, IC50 [2]: 0.198 µg/mL
Chemotaxis IC50 [3]: 0.198 µg/mL
binding result [4]: binds

B3: anti-CCR2 antibody 4.40 A68G S230P (antibody, human IgG4 S228P, kappa, V domains shown)
VH: B1 VH
VL: B1 VL with A68G
notes: Recombinant human IgG4 with the hinge mutation S230P (heavy chain) and the germline reversion A68G (light chain) of 4.40; also called 4.40.3 A68G S230P; 4.40.2 A68G S230P
inhibition of MCP-1 induced actin polymerization in monocytes, human whole blood, IC50 [5]: 0.168 µg/mL
inhibition of MCP-1 induced pERK phosphorylation in human whole blood, IC50 [5]: 0.44 µg/mL and 2.9 nM
inhibition of chemotaxis of THP-1 monocytes in response to MCP-1, IC50 [5]: 0.148 µg/mL
inhibition of collagen IAI mRNA synthesis in LI90 cells induced by MCP-1, IC50 [5]: 0.89 µg/mL and 6.2 nM
inhibition of MCP-1 induced whole blood actin polymerization in the cynomolgus monkey, IC50 [6]: 0.49 µg/mL
EC50 (read off the curve) [7]: ~0.05 µg/mL
Kd [7]: 0.0226 µg/mL
binding result [8]: no binding
EC50 (read off the curve) [9]: ~0.08 µg/mL
Kd [9]: 0.0849 µg/mL
Kd [10]: 0.023 µg/mL and 0.16 nM
binding result [11]: binds
binding result [12]: no binding (tested: about 6 ug/ml)
Kd [13]: 0.085 µg/mL

B4: anti-CCR2 monoclonal antibody 4.39.3 (antibody, human IgG4, kappa, V domains shown)
VH: QVQLVQSGAEVKKPGASVKVSCKASGYTFTSYYIHWVRQAPGQGLEWMGMINPSGGPTSYAQKFQGRVTMTRDTSTSTVYMDLSSLRSEDTAVFYCARERWYKWNFDAFDIWGQGTMVTVSS
VL: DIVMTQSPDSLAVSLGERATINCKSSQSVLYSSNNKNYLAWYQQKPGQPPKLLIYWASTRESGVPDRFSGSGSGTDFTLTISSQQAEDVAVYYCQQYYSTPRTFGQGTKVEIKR
Inhibition of MCP-1-induced THP-1 Chemotaxis, IC50 [2]: 0.139 µg/mL
Chemotaxis IC50 [3]: 0.139 µg/mL
